# Experimental data taken from the RNAGym collection of RNA variant scans (doi:10.1093/molbev/msab373).
# B1: Azoarcus group I ribozyme (parent)
# chain: GUGCCUUGCGCCGGGAAACCACGCAAGGGAUGGUGUCAAAUUCGGCGAAACCUAAGCGCCCGCCCGGGCGUAUGGCAACGCCGAGCCAAGCUUCGGCGCCUGCGCCGAUGAAGGUGUAGAGACUAGACGGCACCCACCUAAGGCAAACGCUAUGGUGAAGGCAUAGUCCAGGGAGUGGCGAAAGUCACACAAACCGG
# Variants of: B1
# Assay: reverse-splicing fitness (ratio to wild type); higher = more active; in vitro selection; Mg2+ level not given
# Outline: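 An in vitro group I ribozyme library with randomized positions was T7-transcribed and gel-purified. In triplicate, 10 pmol RNA in EPPS pH 7.5 was reacted with 50 pmoles of a 30-nt RNA substrate for 1 h at 37 °C across several added MgCl2 levels (1–48 mM), then stopped with EDTA. Products were reverse transcribed from a substrate-complementary primer, PCR-amplified and sequenced (HiSeq 4000). Fitness is a variant's read proportion after selection over that before, normalised to wild type.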
row,Variant,reverse-splicing fitness
1,C82A A111C C150U C169G U176A,0.013
2,C82A A111C C150U C169G U176G,0.00899
3,C82A A111C C150U C169G U176C,0.0175
4,C82A A111C A145G C150G C169U U176C,0.0116
5,C82A A111C A145G C150G C169U U176A,0.0112
6,C82A A111C A145G C150G C169U U176G,0.00666
7,C82A A111C A145U C150A C169A U176C,0.0143
8,C82A A111C A145U C150A C169A U176A,0.0148
9,C82A A111C A145U C150A C169A U176G,0.00891
10,C82A A111C C150G,0.016
11,C82A A111C C150U,0.113
12,C82A A111C C150A,0.0239
13,C82A A111C C150G C169A U176G,0.00698
14,C82A A111C C150G C169A U176C,0.0102
15,C82A A111C C150G C169A U176A,0.00958
16,C82A A111C A145G C150U C169A U176A,0.0141
17,C82A A111C A145G C150U C169A U176G,0.00833
18,C82A A111C A145G C150U C169A U176C,0.0148
19,C82A A111C A145U C150U C169G U176G,0.00855
20,C82A A111C A145U C150U C169G U176A,0.0143
21,C82A A111C A145U C150U C169G U176C,0.0179

row,Variant,reverse-splicing fitness
1,C82A A111C A145G C169A U176A,0.0211
2,C82A A111C A145G C169A U176C,0.029
3,C82A A111C A145G C169A U176G,0.0069
4,C82A A111C A145U,0.229
5,C82A A111C A145U C169G U176C,0.0193
6,C82A A111C A145U C169G U176A,0.0124
7,C82A A111C A145U C169G U176G,0.00756
8,C82A A111C C150U C169A,0.0115
9,C82A A111C C150U C169U,0.0128
10,C82A A111C C150U C169G,0.00783
11,C82A A111C A145G U176G,0.017
12,C82A A111C A145G U176C,0.0992
13,C82A A111C A145G U176A,0.0768
14,C82A A111C C150A C169G U176G,0.00951
15,C82A A111C C150A C169G U176A,0.0151
16,C82A A111C C150A C169G U176C,0.0222
17,C82A A111C C150U C169A U176C,0.0125
18,C82A A111C C150U C169A U176A,0.0146
19,C82A A111C C150U C169A U176G,0.00801
20,C82A A111C C150G C169U U176G,0.00629
21,C82A A111C C150G C169U U176A,0.0073

row,Variant,reverse-splicing fitness
1,C82A A111C C150G C169U U176C,0.0137
2,C82A A111C A145G C150G,0.0238
3,C82A A111C A145G C150U,0.174
4,C82A A111C C150G C169G,0.00723
5,C82A A111C C150G C169U,0.00907
6,C82A A111C C150G C169A,0.00766
7,C82A A111C A145G C169A,0.0103
8,C82A A111C A145G C169U,0.0142
9,C82A A111C A145G C169G,0.00878
10,C82A A111C A145U C150A U176G,0.00868
11,C82A A111C A145U C150A U176C,0.0205
12,C82A A111C A145U C150A U176A,0.0127
13,C82A A111C A145G C150G C169A U176C,0.0134
14,C82A A111C A145G C150G C169A U176A,0.0119
15,C82A A111C A145G C150G C169A U176G,0.00877
16,C82A A111C A145U C150G C169G U176C,0.0061
17,C82A A111C A145U C150G C169G U176G,0.00861
18,C82A A111C A145U C150G C169G U176A,0.00679
19,C82A A111C A145G C150G C169G,0.00662
20,C82A A111C A145G C150G C169U,0.00803
21,C82A A111C A145G C150G C169A,0.00852

row,Variant,reverse-splicing fitness
1,C82A A111C C150A C169U U176G,0.0104
2,C82A A111C C150A C169U U176C,0.0182
3,C82A A111C C150A C169U U176A,0.0161
4,C82A A111C C150U U176C,0.0554
5,C82A A111C C150U U176G,0.0134
6,C82A A111C C150U U176A,0.036
7,C82A A111C C150A U176A,0.0165
8,C82A A111C C150A U176C,0.0285
9,C82A A111C C150A U176G,0.0104
10,C82A A111C A145U U176A,0.073
11,C82A A111C A145U U176C,0.0939
12,C82A A111C A145U U176G,0.0235
13,C82A A111C A145U C150G C169A U176G,0.00861
14,C82A A111C A145U C150G C169A U176C,0.0117
15,C82A A111C A145U C150G C169A U176A,0.0098
16,C82A A111C C150A C169U,0.0131
17,C82A A111C C150A C169A,0.00979
18,C82A A111C C150A C169G,0.00835
19,C82A A111C A145G C150U C169U U176G,0.00766
20,C82A A111C A145G C150U C169U U176A,0.0138
21,C82A A111C A145G C150U C169U U176C,0.0143
